Source: patent publication US20130064825A1

Key:
[1] = target: cynomolgus monkey PCSK9, V5-6xHIS tagged (cynomolgus monkey); assay: KinExA solution equilibrium, PCSK9-coated beads
[2] = target: cynomolgus monkey PCSK9, V5-6xHIS tagged (cynomolgus monkey); assay: SPR (Biacore 2000), antibody amine-coupled on CM5 chip, PCSK9 injected, pH 7.4

Kd [1]: 0.002 nM | Kd [2]: 0.19 nM
Substance: 31H4, anti-PCSK9 huIgG4 (antibody)
